Assay results as given in patent US20090311265A1.

Columns and labels:
[1] = target: recombinant HA, subtype H7 (A/Netherlands/219/03 (H7N7)) (influenza A virus A/Netherlands/219/03 (H7N7)); experiment: ELISA, coated HA, IgG 5 µg/ml
[2] = target: recombinant HA, subtype H9 (A/Hong Kong/1073/99 (H9N2)) (influenza A virus A/Hong Kong/1073/99 (H9N2)); experiment: ELISA, coated HA, IgG 5 µg/ml

B1: CR6329 (antibody, V domains shown)
VH: EVQLVQSGAEVKKPGSSVKVSCKASGGIFRSNSISWVRQAPGQGLEWMGGIFALFGTTDYAQKFQGRVTITADESSTTVYLELSSLTSEDTAVYYCARGSGYTTRNYFDYWGQGTLVTVSS
VL: EIVLTQSPGTLSLSPGERATLSCRASQSVSSNYLGWYQQKPGQAPRLLIYGASSRASGIPDRFSGGGSGTDFTLTISRLEPEDFAVYYCQQYGSSPLTFGGGTKVEIKR
OD 492 nm [1]: 0.17 OD 492 nm
OD 492 nm [2]: 2.16 OD 492 nm
